Results from patent US20160130569, “A LAGLIDADG HOMING ENDONUCLEASE CLEAVING THE T CELL RECEPTOR ALPHA GENE AND USES THEREOF” (CELLECTIS, published 2016).

T1: TCRA_S02_2E5 (Ophiostoma novo-ulmi (engineered))
T1 chain: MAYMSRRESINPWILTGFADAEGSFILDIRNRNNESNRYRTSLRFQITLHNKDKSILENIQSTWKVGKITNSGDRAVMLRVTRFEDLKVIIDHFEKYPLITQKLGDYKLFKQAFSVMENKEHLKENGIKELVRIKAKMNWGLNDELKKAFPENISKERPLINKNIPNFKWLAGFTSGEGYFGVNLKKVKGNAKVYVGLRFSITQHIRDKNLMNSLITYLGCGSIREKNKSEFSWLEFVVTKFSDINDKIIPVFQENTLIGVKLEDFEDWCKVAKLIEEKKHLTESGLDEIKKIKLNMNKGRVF

T2: I-OnuI wild type (OnuWT) (Ophiostoma novo-ulmi)
T2 chain: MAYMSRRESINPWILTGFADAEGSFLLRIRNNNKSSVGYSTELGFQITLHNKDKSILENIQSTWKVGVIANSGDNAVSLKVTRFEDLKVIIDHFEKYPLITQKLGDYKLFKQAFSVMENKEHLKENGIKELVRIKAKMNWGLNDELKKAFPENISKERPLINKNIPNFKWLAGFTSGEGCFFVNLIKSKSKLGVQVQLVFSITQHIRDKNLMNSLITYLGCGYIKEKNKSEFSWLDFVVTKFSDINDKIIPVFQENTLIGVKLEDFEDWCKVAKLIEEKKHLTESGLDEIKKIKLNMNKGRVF


Assays:
TCRA_S02_2E5 = biological target: T1, TCRA_S02_2E5; assay: flow; yeast surface display titration; Example 3 text names the variant as TCRA_S02_2E5_RD1_08; conditions: label: fluorescent dye (Alexa Fluor 647) in yeast display assays
Protocol: (§1) Samples of yeast displaying each LHE variant were independently incubated with increasing concentrations of fluorescent dye-labeled synthetic DNA substrates (y-axis). An antibody to a C-terminal epitope was also included (x-axis) such that DNA binding activity could be normalized to the amount of LHE protein expressed on the yeast surface, creating the co-linear pattern, with higher signal in the y-axis per x-axis signal where affinity is greater.
The LHE containing the engineered DNA recognition interfaces for the TCRA_S02 (SEQ ID NO: 3) target was tested for affinity, specificity, and toxicity characteristics. Affinity was tested by independently incubating yeast displaying the TCRA_S02_2E5_RD1_08 variant, (SEQ ID NO: 7, encoding SEQ ID NO: 8) with DNA substrates containing its target sequences at various concentrations. See FIG. 6 showing the affinity properties of this variant relative to the wild-type I-Onul protein. […] Toxicity was analyzed by in vitro transcribing each LHE into mRNA and transfecting primary human T cells by electroporation, followed by flow cytometry analysis of the survival of the cells relative to transfection with a control mRNA encoding a blue fluorescent protein (BFP). […]

I-OnuI wild type (OnuWT) = biological target: T2, I-OnuI wild type (OnuWT); assay: flow; yeast surface display titration; conditions: label: Alexa Fluor 647
Protocol: as §1
The LHE containing the engineered DNA recognition interfaces for the TCRA_S02 (SEQ ID NO: 3) target was tested for affinity, specificity, and toxicity characteristics. Affinity was tested by independently incubating yeast displaying the TCRA_S02_2E5_RD1_08 variant, (SEQ ID NO: 7, encoding SEQ ID NO: 8) with DNA substrates containing its target sequences at various concentrations. See FIG. 6 showing the affinity properties of this variant relative to the wild-type I-Onul protein. […] Toxicity was analyzed by in vitro transcribing each LHE into mRNA and transfecting primary human T cells by electroporation, followed by flow cytometry analysis of the survival of the cells relative to transfection with a control mRNA encoding a blue fluorescent protein (BFP).

Binder	Kd (TCRA_S02_2E5)	Kd (I-OnuI wild type (OnuWT))
TCRA_S02 (dsDNA) DNA 1: TGTCTGCCTATTCACCGATTTT DNA 2: AAAATCGGTGAATAGGCAGACA	~0.09 nM	–
I-OnuI native target (dsDNA) DNA 1: TTTCCACTTATTCAACCTTTTA DNA 2: TAAAAGGTTGAATAAGTGGAAA	–	~0.08 nM
